{
  "source": "patent US20240382567A1",
  "about": "“Long-acting PTH compound treatments” (Ascendis Pharma Bone Diseases A/S, priority 2021, published 2024)",
  "origin": "cited, not measured here",
  "test_system": "patients with hypoparathyroidism",
  "note": "Where two headings read alike, the source gives them in different places.",
  "data": [
    {"molecule": "PTH(1-84): daily injection of PTH(1-84), approved as adjunct to calcium and vitamin D to control hypocalcemia in hypoparathyroidism (protein, UniProt P01270 32-115, looked up, Parathyroid hormone, daily injection of PTH(1-84), approved as adjunct to calcium and vitamin D to control hypocalcemia in hypoparathyroidism) Parathyroid hormone: SVSEIQLMHNLGKHLNSMERVEWLRKKLQDVHNFVALGAPLAPRDAGSQRPRKKEDNVLVESHEKSLGEADKADVNVLTKAKSQ", "values": [
      {"measurement": "Total hip BMD increase from baseline", "setting": "3 years, P=0.04", "result": 2.10, "unit": "%"},
      {"measurement": "Lumbar spine BMD increase", "setting": "at 24 months, P=0.01", "result": 3.2, "unit": "%"},
      {"measurement": "Distal one third radius BMD mean loss", "setting": "study conclusion (year 6), P=0.0001 vs baseline", "result": 4.4, "unit": "%"},
      {"measurement": "Femoral neck BMD increase", "setting": "year 3, P=0.04", "result": 2.6, "unit": "%"},
      {"measurement": "Distal one third radius T-score", "setting": "year 6", "result": "−0.28"},
      {"measurement": "Femoral neck BMD versus baseline", "setting": "year 6", "result": "not different from baseline"},
      {"measurement": "Lumbar spine BMD mean gain from baseline", "setting": "year 6, P=0.004", "result": 3.8, "unit": "%"},
      {"measurement": "Total hip BMD increase from baseline", "setting": "year 6, P=0.02", "result": 2.4, "unit": "%"}
    ]}
  ]
}
